Values quoted from earlier work, collected in publication PMC4872106.

Molecular target: M.EcoKI (Escherichia coli) (UniProt P08957)
Conditions: cited from earlier work

Sequence of M.EcoKI (Escherichia coli) (P08957 whole entry, chain 1 of 2): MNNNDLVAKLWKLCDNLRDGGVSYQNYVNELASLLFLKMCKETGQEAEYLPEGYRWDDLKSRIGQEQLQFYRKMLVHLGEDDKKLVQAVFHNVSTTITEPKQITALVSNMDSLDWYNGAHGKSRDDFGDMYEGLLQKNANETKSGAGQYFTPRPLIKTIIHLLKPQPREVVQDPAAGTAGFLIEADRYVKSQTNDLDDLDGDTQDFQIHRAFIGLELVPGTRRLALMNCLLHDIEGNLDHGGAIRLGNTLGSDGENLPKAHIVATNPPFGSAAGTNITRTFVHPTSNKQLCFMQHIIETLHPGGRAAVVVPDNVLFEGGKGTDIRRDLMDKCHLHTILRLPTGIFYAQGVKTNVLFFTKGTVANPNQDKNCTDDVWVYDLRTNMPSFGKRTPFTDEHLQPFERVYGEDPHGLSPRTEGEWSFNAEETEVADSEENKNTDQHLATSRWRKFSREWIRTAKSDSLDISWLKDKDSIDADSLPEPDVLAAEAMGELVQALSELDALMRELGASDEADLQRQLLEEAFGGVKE
Sequence of M.EcoKI (Escherichia coli) (P05719 2-464, chain 2 of 2, further chain): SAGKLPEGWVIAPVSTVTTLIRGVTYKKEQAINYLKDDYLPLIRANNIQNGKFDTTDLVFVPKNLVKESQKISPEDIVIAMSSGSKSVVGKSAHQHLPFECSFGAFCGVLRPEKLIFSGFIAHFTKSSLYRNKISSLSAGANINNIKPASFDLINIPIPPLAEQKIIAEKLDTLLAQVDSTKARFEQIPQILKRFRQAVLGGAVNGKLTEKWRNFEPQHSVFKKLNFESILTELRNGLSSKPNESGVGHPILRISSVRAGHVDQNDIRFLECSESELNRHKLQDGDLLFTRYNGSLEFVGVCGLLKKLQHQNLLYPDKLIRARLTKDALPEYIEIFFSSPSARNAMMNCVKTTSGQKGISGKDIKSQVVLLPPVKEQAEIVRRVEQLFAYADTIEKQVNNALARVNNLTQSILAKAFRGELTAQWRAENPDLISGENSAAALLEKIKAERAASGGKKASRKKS
Sequence of Ocr (P03775 whole entry): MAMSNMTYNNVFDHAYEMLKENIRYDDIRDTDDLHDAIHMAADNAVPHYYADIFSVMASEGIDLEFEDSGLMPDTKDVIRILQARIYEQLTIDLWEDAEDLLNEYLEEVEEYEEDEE

**Q.** With Ocr (from UniProt P03775) as the substance, how does the Kd read?
**A.** Its Kd is 0.05 nM.
